Test [1] has as its target T1, HLA-A*0201/β2-microglobulin/NY-ESO peptide complex (human, biotinylated with E. coli biotin ligase at the added recognition sequence (biotinylated form used in the ELISA)).
T1 construct: also called HLA/NY-ESO; HLA-A2/NY-ESO
Briefly: SPR (Biacore T200), bispecific captured by anti-human IgG (Fc) antibody, HLA/NY-ESO as analyte, single cycle kinetics.
Procedure: With the use of Biacore T200, various Fc-conjugated anti-HLA/NY-ESO-anti-CD3 bispecific molecules were captured as ligands to the immobilized anti-human IgG (Fc) antibody, and the antigen was assayed as an analyte. […] The anti-human IgG (Fc) antibody (Human antibody Capture kit, GE Healthcare) was immobilized on Sensor Chip CM5 (GE Healthcare) in accordance with the instructions of the kit. The Fc-conjugated anti-HLA/NY-ESO-anti-CD3 bispecific molecules diluted to 0.5 g/ml in HBS-EP+(GE Healthcare) to be evaluated were brought into contact therewith at 10 μl/min for 60 seconds for immobilization. Thereafter, the samples were added to the HLA/NY-ESO analytes diluted to various levels with HBS-EP+ at a flow rate of 30 μl/min for 120 seconds and dissociation was assayed for 600 seconds.

Test [2] deals with HLA-A2/NY-ESO peptide complex presented on cells (human). The test can be described thus: cell-based or functional assay.
Test [3] shares this target. The test can be described thus: cell-based or functional assay. The source holds these as a separate data set.
Test [4] concerns the target T2, 1F (human).
T2 construct: cell surface; also called HLA-A2 / point-mutant NY-ESO peptide 1F complex on CD3e knockout T2 cells
Briefly: flow cytometry, CD3e knockout T2 cells pulsed with 50 µM peptide, antibody at 100 nM, PE anti-human IgG; gMFI standardized to the HLA/peptide amount; DMSO-only cells 1.15.
Procedure: (§1) The cells were washed 2 times in PBS containing 5% FBS, PE conjugated F(ab′)2 Fragment Anti-Human IgG (Jackson Immuno Research Laboratories) diluted with PBS containing 5% FBS was added at 25 μl/well, and the resultant was allowed to stand at 4° C. for 30 minutes. The cells were washed 2 times in PBS containing 5% FBS, immobilized with Mildform 10 N (FUJIFILM Wako Pure Chemical Corporation) overnight, and resuspended in PBS containing 5% FBS. […] The cells were washed 2 times in PBS containing 5% FBS, immobilized with Mildform 10 N (FUJIFILM Wako Pure Chemical Corporation) overnight, and resuspended in PBS containing 5% FBS. The cell suspensions were subjected to detection using a flow cytometer (CantoII, Becton Dickinson). […] The standardized gMFI indicating the binding affinity of each Fc-conjugated anti-HLA-A2/NY-ESO-anti-CD3 bispecific molecule standardized with the amount of the HLA/peptide complex on the CD3e knockout T2 cells was determined in accordance with the following equation.

Test [5] deals with T3, HLA-A2/NY-ESO peptide complex presented on cells (human).
T3 construct: whole, on cells; also called HLA/NY-ESO; T2 cells supplemented with the NY-ESO peptide
Described as above.
Procedure: as §1

Test [6] has as its target T4, gp100 (human).
T4 construct: cell surface; unrelated control peptide; also called HLA-A2 / gp100 peptide complex on CD3e knockout T2 cells
The test is described as above.
Procedure: as §1

Test [7] addresses T5, HLA-A2 / homologous peptide DOLPP1 complex on T2 cells (human).
T5 construct: whole, on cells; also called T2 cells supplemented with homologous peptide DOLPP1
Briefly: flow cytometry, CD3e knockout T2 cells pulsed with 50 µM peptide, antibody at 100 nM, PE anti-human IgG; gMFI standardized to the HLA/peptide amount; DMSO-only cells 1.19. On the technique in general: Flow cytometry measures light scatter and fluorescence of single cells or particles in a stream.
Source text: (§2) The cells were washed 2 times in PBS containing 5% FBS, immobilized with Mildform 10 N (FUJIFILM Wako Pure Chemical Corporation) overnight, and resuspended in PBS containing 5% FBS. The cell suspensions were subjected to detection using a flow cytometer (CantoII, Becton Dickinson). […] The standardized gMFI indicating the binding affinity of each Fc-conjugated anti-HLA-A2/NY-ESO-anti-CD3 bispecific molecule standardized with the amount of the HLA/peptide complex on the CD3e knockout T2 cells was determined in accordance with the following equation.
(§3) The standardized gMFI indicating the binding affinity of each Fc-conjugated anti-HLA-A2/NY-ESO-anti-CD3 bispecific molecule standardized with the amount of the HLA/peptide complex on the CD3e knockout T2 cells was determined in accordance with the following equation.

The target of test [8] is T3, HLA-A2/NY-ESO peptide complex presented …. The description is as above.
Source text: as §2, §3
In test [9] the target is T6, HLA-A2 / homologous peptide PRKD2 complex on T2 cells (human).
T6 construct: whole, on cells; also called T2 cells supplemented with homologous peptide PRKD2
The description is as above.
Source text: as §2, §3

The target of test [10] is T7, HLA-A2 / homologous peptide CD163 complex on T2 cells (human).
T7 construct: whole, on cells; also called T2 cells supplemented with homologous peptide CD163
Described as above.
Source text: as §2, §3

In test [11] the target is T4, gp100. The description is as above.
Source text: as §2, §3
Test [12] has as its target T8, HLA-A2 / homologous peptide P2RY8 complex on T2 cells (human).
T8 construct: whole, on cells; also called T2 cells supplemented with homologous peptide P2RY8
Described as above.
Source text: as §2, §3

The target of test [13] is T9, HLA-A2 / homologous peptide IL20RB complex on T2 cells (human).
T9 construct: whole, on cells; also called T2 cells supplemented with homologous peptide IL20RB
The description is as above.
Source text: as §2, §3

Test [14] deals with T1, HLA-A*0201/β2-microglobulin/NY-ESO …. Briefly: SPR (Biacore T200), scFv captured by anti-His antibody, HLA/NY-ESO as analyte, single cycle kinetics.
Procedure: With the use of Biacore T200, the anti-HLA/NY-ESO scFv was captured as a ligand to the immobilized anti-His antibody, and the antigen was assayed as an analyte. As the antigen, HLA/NY-ESO prepared in 1)-1 was used. The anti-His antibody (His Capture kit, Cytiva) was immobilized on Sensor Chip CM5 (Cytiva) in accordance with the instructions of the kit. The anti-HLA/NY-ESO scFv constructs diluted to 0.5 μg/ml in HBS-EP+(Cytiva) to be evaluated were brought into contact therewith at 10 μl/min for 60 seconds for immobilization. Thereafter, the samples were added to the HLA/NY-ESO analytes diluted to various levels with HBS-EP+ at a flow rate of 30 μl/min for 120 seconds and dissociation was assayed for 600 seconds.

B1: NYZ-1010 (bispecific antibody, human IgG1, lambda, L234A L235A)
chain 1: not shown
chain 2: not shown
light: NFMLTQPSSVSGVPGQRVTISCTGNTGNIGSNYVNWYQQLPGTAPKLLIYRDDKRPSGVPDRFSGSKSGTSASLAITGFQAEDEADYYCQSYSSGFIFGGGTKLTVLGQPKAAPSVTLFPPSSEELQANKATLVCLISDFYPGAVTVAWKADSSPVKAGVETTTPSKQSNNKYAASSYLSLTPEQWKSHRSYSCQVTHEGSTVEKTVAPTECS
As for B1, the Kd (as a rule, the free concentration of one partner at which half of the binding sites on the other are occupied at equilibrium, for simple one-to-one binding) in test [1] is 1.9 nM. In addition, the “EC50 of cytotoxicity on NCI-H1703 cells (51Cr release, human PBMC effectors)” value in [2] stood at 2.56 nM. For the same molecule, the “EC50 of cytotoxicity on U266B1 cells (51Cr release, human PBMC effectors)” value in [3] is 0.96 nM. The “standardized gMFI” value in [4] amounted to 0.86; in test [5], 43.3; in test [6] it was 0.53; in [7], 0.7; in [8] it was 44.4; in test [9], 0.54. The “standardized gMFI” value was 0.67 in test [10], 0.54 in test [11], 0.95 in test [12] and 0.88 in [13].

B2: NYC-0008 (scFv)
scFv: GEVQLVESGGGVVQPGGSLRLSCEASGFIFDDYAMHWVRQAPGKGLEWVSLISGDGDIIYYADSVKGRFTISRDNSKNSLYLQMNSLIIEDTALYYCAKDWVFGVVMTHYWYFGLDVWGQGTTVTVSSGGGGSGGGGSGGGGSDIQMTQSPSSLSASEGDRVTITCRASQSISTYLNWYQQKPGKAPKLLIYGASSLQSGVPSRFSGSGSGTDFTLTISSLQPEDFATYYCQQSYSTPPITFGQGTKVEIKGAAAGAGGDYKDDDDKGAAAHHHHHH
notes: Captured by anti-His antibody in SPR; also called scFv of mAb28105P
In [14], B2 returned a Kd of 7.9 nM. This lies in the single-digit nanomolar range.

For the origin of these results see patent US20230348616A1 (MIE UNIVERSITY, published 2023).
